Data: US20190284293A1 (Bristol-Myers Squibb, published 2019)

Tests used:
[1] = biological target: T1, cyno CD73, Sino Biological Inc Cat#90192-C08H, bound to his-tag magnet beads (cynomolgus, UniProt P21589 27-547 (human entry)); test: cell-based or functional assay
T1 chain: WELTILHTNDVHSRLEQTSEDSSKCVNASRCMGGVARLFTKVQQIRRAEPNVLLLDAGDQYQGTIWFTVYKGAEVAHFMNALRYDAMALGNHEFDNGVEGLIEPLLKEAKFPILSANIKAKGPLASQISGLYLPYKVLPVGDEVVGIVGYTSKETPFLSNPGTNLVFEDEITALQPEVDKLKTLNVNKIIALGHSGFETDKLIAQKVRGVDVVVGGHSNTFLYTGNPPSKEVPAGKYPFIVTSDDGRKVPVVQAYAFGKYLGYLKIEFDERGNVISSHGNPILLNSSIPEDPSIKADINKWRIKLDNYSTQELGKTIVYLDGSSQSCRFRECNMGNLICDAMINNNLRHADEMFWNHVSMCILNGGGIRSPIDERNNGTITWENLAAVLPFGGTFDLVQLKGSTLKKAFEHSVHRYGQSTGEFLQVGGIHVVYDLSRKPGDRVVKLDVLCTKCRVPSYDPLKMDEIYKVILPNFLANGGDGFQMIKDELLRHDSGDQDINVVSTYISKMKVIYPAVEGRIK

[2] = biological target: T2, cynomolgus CD73 on transfected CHO cells (cynomolgus, UniProt P21589 27-549 (human entry)); test: flow cytometry, CHO-cynoCD73 cells
T2 construct: also called CHO-cynoCD73; CHO-Cynomolgus CD73 transfectants
T2 chain: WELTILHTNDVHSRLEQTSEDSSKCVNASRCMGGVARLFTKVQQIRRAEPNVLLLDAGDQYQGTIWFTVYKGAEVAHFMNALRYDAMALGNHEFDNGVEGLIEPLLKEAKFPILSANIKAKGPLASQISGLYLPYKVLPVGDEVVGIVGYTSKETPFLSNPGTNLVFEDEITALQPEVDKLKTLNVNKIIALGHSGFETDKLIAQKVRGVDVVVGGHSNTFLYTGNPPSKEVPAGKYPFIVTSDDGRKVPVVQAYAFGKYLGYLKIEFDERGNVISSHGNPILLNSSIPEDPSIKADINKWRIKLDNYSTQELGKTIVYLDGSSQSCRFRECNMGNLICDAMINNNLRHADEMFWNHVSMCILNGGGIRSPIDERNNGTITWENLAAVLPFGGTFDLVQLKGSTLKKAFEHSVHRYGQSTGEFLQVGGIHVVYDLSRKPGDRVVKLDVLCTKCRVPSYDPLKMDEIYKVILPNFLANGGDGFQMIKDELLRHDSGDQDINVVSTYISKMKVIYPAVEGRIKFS
Protocol: (§1) Titration binding curves were produced with CD73 antibodies on Calu6 (CD73 endogenous expressors; human pulmonary adenocarcinoma cell line), DMS114 (CD73 negative; human small cell lung cancer cell line), CHO-cynoCD73 (cynoCD73-transfected) and CHO-K1 (cynoCD73 negative), cells using Alexa Fluor® 647 Goat Anti-Human IgG (H+L) as a secondary antibody, Invitrogen Cat#A-21445, using the following method: 100000 cells were plated in 100 uL PBS+2% FBS per well and blocked for 20 min. Using a U-bottom 96-deep well plate, volumes of antibody and PBS+2% FBS were combined as dictated by Table 12 below.
(§2) An 8-point serial dilution was performed by diluting a sixth of the volume (90 uL) into […], PBS+2% FBS. The cell plate was spun down for 5 minutes at 1500 rpm. 100 uL of diluted antibody was added per well of the plate. 100 uL PBS+2% FBS were added to all other wells. […] The plates were spun down at 1500 rpm for 5 min and washed in 200 uL PBS+2% FBS per well. The plates were washed again, resuspended in 200 uL 2% FBS in PBS per well and the samples were run.

human CD73 on cells = biological target: T3, human CD73 on cells (human, UniProt P21589 27-549); test: flow cytometry, Calu6 cells
T3 construct: Endogenous protein; also called endogenous CD73 on Calu6, NCI-H292, SK-MEL-24, human B and T cells
T3 sequence: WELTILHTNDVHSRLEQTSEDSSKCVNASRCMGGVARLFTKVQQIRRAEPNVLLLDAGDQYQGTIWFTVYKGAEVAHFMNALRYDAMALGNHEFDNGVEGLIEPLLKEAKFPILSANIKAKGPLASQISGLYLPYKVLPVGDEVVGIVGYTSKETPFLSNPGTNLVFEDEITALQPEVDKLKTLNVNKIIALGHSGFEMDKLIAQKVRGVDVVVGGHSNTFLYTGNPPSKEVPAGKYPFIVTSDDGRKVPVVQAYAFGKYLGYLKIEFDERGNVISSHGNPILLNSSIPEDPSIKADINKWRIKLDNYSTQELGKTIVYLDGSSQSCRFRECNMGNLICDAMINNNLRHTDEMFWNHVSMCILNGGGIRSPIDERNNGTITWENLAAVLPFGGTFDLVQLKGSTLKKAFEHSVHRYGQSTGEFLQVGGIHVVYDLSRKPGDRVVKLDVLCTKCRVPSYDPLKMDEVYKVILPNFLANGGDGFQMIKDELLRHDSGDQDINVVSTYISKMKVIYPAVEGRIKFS
Protocol: as §1, §2

[3] = biological target: T4, N-hCD73-his (N-terminal domain of human CD73, residues 26-336, His tag) (human, UniProt P21589 26-336); test: SPR, comparison of all IgG2 molecules
T4 sequence: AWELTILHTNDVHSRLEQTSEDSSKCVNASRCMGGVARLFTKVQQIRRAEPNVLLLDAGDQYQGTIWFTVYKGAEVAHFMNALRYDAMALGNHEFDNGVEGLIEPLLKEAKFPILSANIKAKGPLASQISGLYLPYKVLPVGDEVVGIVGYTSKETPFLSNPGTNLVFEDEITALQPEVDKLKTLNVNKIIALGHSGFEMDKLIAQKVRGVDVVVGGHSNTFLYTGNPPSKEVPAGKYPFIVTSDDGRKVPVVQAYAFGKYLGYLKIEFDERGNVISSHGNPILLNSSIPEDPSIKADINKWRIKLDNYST
Protocol: For these experiments, protein A (Pierce) was immobilized to a density of 3000-4000 RU on flow cells 1-4 of a CM5 sensor chip (GE Healthcare) using standard ethyl(dimethylaminopropyl) carbodiimide (EDC)/N-hydroxysuccinimide […] chemistry, with ethanolamine blocking, in a running buffer of 0.01 M HEPES pH 7.4, 0.15 M NaCl, 3 mM EDTA, 0.005% v/v tween 20. […] The running buffer for the kinetic experiments was 10 mM sodium phosphate, 130 mM sodium chloride, 0.05% tween 20, pH 7.1. The surfaces were regenerated after each cycle using two 30 s pulses of 10 mM glycine pH 1.5 at a flow rate of 30 μl/min. Sensogram data was double-referenced and then fitted to a 1:1 Langmuir model using Biacore T100 evaluation software v2.0.4, to determine the association rate constant (ka), the dissociation rate constant (kd), and the equilibrium dissociation constant (KD).

B1: CD73.10-IgG2-C219S-IgG1.1f (antibody)
heavy: QVQLVESGGGVVQPGRSLRLSCAASGFTFSNYGMHWVRQAPGKGLEWVAVIWYDESNKYYPDSVKGRFTISRDNSKNTLYLQMNSLRAEDTAVYYCARGGSSWYPDSFDIWGQGTMVTVSSASTKGPSVFPLAPCSRSTSESTAALGCLVKDYFPEPVTVSWNSGALTSGVHTFPAVLQSSGLYSLSSVVTVPSSNFGTQTYTCNVDHKPSNTKVDKTVERKSCVECPPCPAPPVAGPSVFLFPPKPKDTLMISRTPEVTCVVVDVSHEDPEVKFNWYVDGVEVHNAKTKPREEQYNSTYRVVSVLTVLHQDWLNGKEYKCKVSNKALPSSIEKTISKAKGQPREPQVYTLPPSREEMTKNQVSLTCLVKGFYPSDIAVEWESNGQPENNYKTTPPVLDSDGSFFLYSKLTVDKSRWQQGNVFSCSVMHEALHNHYTQKSLSLSPG
light: not shown
notes: also called CD73.10-IgG2CS-IgG1.1f; CD73.10-IgG2S-IgG1.1f
B1 was tested. Which “EC50 (nM), enzymatic inhibition of cyno CD73 (bead-bound)” value [1] did it give?
Its value is 9.94 nM.

And the EC50 [2]?
The EC50 was 1.27 nM.

And the EC50 (human CD73 on cells)?
Its EC50 is 0.85 nM.

B2: CD73.10-IgG2-C219S (antibody)
heavy: QVQLVESGGGVVQPGRSLRLSCAASGFTFSNYGMHWVRQAPGKGLEWVAVIWYDESNKYYPDSVKGRFTISRDNSKNTLYLQMNSLRAEDTAVYYCARGGSSWYPDSFDIWGQGTMVTVSSASTKGPSVFPLAPCSRSTSESTAALGCLVKDYFPEPVTVSWNSGALTSGVHTFPAVLQSSGLYSLSSVVTVPSSNFGTQTYTCNVDHKPSNTKVDKTVERKSCVECPPCPAPPVAGPSVFLFPPKPKDTLMISRTPEVTCVVVDVSHEDPEVQFNWYVDGVEVHNAKTKPREEQFNSTFRVVSVLTVVHQDWLNGKEYKCKVSNKGLPAPIEKTISKTKGQPREPQVYTLPPSREEMTKNQVSLTCLVKGFYPSDIAVEWESNGQPENNYKTTPPMLDSDGSFFLYSKLTVDKSRWQQGNVFSCSVMHEALHNHYTQKSLSLSPG
light: not shown
notes: also called CD73.10-IgG2CS; CD73.10-IgG2S
For B2, which “fold lower affinity than 11F11 or CD73.4” value [3] is on record?
The value was ~10 fold.

What about the “EC50 (nM), enzymatic inhibition of cyno CD73 (bead-bound)” value [1] of the same binder?
The value was 8.78 nM.

And the EC50 [2]?
The EC50 was 1.24 nM.

What about the EC50 (human CD73 on cells) of the same binder?
The EC50 was 0.85 nM.
